Data on one molecule can be found in article PMC3225088.

The target of this data set is T1, NmtR wild-type (Mycobacterium tuberculosis, UniProt O69711 2-120).
T1 sequence: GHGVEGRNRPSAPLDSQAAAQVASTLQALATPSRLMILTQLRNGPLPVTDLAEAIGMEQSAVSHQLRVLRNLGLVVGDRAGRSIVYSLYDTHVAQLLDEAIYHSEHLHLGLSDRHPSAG
The data set can be described thus: fluorescence anisotropy. For orientation: In fluorescence polarisation assays a small probe gives low polarisation when free and higher when bound to something large.

B1: nmt operator 30 bp (dsDNA)
DNA 1: GAAATAAATGAACATATGATCATATATTCT
DNA 2: AGAATATATGATCATATGTTCATTTATTTC
Regarding B1, the Ka worked out at 2.86e+10 M⁻¹.
